Experiments:
human fibroblasts (HDF) = experiment: Skin fibroblast (HDF) proliferation; format: cell-based; conditions: 500 ng/ml, 48 hours, DMEM 1% FBS
Description: (§1) After 48 hours, a change in cell viability was measured, and results thereof are shown in Tables 8 and 9 below and FIGS. 9 and 10.

[1] = test system: adipose-derived stem cells (ASC); experiment: Adipose-derived stem cell (ASC) proliferation, CCK-8; format: cell-based; conditions: positive control of Table 10 (FBS, 10 wt. % in medium), 24 hours
Description: Adipocytes derived stem cells (ADCs) were cultured in DMEM medium (Invitrogen) containing 10% fetal calf serum and 1% penicillin/streptomycin at 37° C. and 5% CO2 conditions, and the medium was changed every 3 days. After culturing for 24 hours, the cells were treated under the conditions shown in Table 10 below, and further cultured for 24 hours. After removing the treated material from each cell and dispensing the CCK-8 solution thereto, the cells were incubated at 37° C. in a CO2 incubator for 2 hours, and absorbance was measured at 450 nm.

keratinocytes (HaCaT) = experiment: Keratinocyte (HaCaT) proliferation; format: cell-based, human; conditions: 500 ng/ml, 48 hours, DMEM 1% FBS
Description: as §1

B1: E1: EGF, positive control at 500 ng/ml (protein, UniProt P01133 23-1207, looked up)
Pro-epidermal growth factor: PQHWSCPEGTLAGNGNSTCVGPAPFLIFSHGNSIFRIDTEGTNYEQLVVDAGVSVIMDFHYNEKRIYWVDLERQLLQRVFLNGSRQERVCNIEKNVSGMAINWINEEVIWSNQQEGIITVTDMKGNNSHILLSALKYPANVAVDPVERFIFWSSEVAGSLYRADLDGVGVKALLETSEKITAVSLDVLDKRLFWIQYNREGSNSLICSCDYDGGSVHISKHPTQHNLFAMSLFGDRIFYSTWKMKTIWIANKHTGKDMVRINLHSSFVPLGELKVVHPLAQPKAEDDTWEPEQKLCKLRKGNCSSTVCGQDLQSHLCMCAEGYALSRDRKYCEDVNECAFWNHGCTLGCKNTPGSYYCTCPVGFVLLPDGKRCHQLVSCPRNVSECSHDCVLTSEGPLCFCPEGSVLERDGKTCSGCSSPDNGGCSQLCVPLSPVSWECDCFPGYDLQLDEKSCAASGPQPFLLFANSQDIRHMHFDGTDYGTLLSQQMGMVYALDHDPVENKIYFAHTALKWIERANMDGSQRERLIEEGVDVPEGLAVDWIGRRFYWTDRGKSLIGRSDLNGKRSKIITKENISQPRGIAVHPMAKRLFWTDTGINPRIESSSLQGLGRLVIASSDLIWPSGITIDFLTDKLYWCDAKQSVIEMANLDGSKRRRLTQNDVGHPFAVAVFEDYVWFSDWAMPSVMRVNKRTGKDRVRLQGSMLKPSSLVVVHPLAKPGADPCLYQNGGCEHICKKRLGTAWCSCREGFMKASDGKTCLALDGHQLLAGGEVDLKNQVTPLDILSKTRVSEDNITESQHMLVAEIMVSDQDDCAPVGCSMYARCISEGEDATCQCLKGFAGDGKLCSDIDECEMGVPVCPPASSKCINTEGGYVCRCSEGYQGDGIHCLDIDECQLGEHSCGENASCTNTEGGYTCMCAGRLSEPGLICPDSTPPPHLREDDHHYSVRNSDSECPLSHDGYCLHDGVCMYIEALDKYACNCVVGYIGERCQYRDLKWWELRHAGHGQQQKVIVVAVCVVVLVMLLLLSLWGAHYYRTQKLLSKNPKNPYEESSRDVRSRRPADTEDGMSSCPQPWFVVIKEHQDLKNGGQPVAGEDGQAADGSMQPTSWRQEPQLCGMGTEQGCWIPVSSDKGSCPQVMERSFHMPSYGTQTLEGGVEKPHSLLSANPLWQQRALDPPHQMELTQ
modifications: Pro-epidermal growth factor
notes: EGF, positive control at 500 ng/ml
HDF proliferation rate (%) (human fibroblasts (HDF)): 143.04% | ASC proliferation rate (%) [1]: 186.10% | HaCaT proliferation rate (%) (keratinocytes (HaCaT)): 160.38%

Reference: US20220016183A1, “EXOSOME AND VARIOUS USES THEREOF” (PROSTEMICS CO., LTD., priority 2018, published 2022)
